Laboratory results taken from the Human Domainome abundance scans (Beltran et al. 2025).
± gives the uncertainty stated by the source.

B1: Dynamin-binding protein, residues 242 to 304; numbered along this chain, Q6XZF7 (parent)
chain: EEPGTYGVALYRFQALEPNELDFEVGDKIRILATLEDGWLEGSLKGRTGIFPYRFVKLCPDTR

Variants of: B1
Assay: abundance fitness (aPCA) (normalised: wild type 0, dead -1); higher = more abundant; growth selection in yeast, the domain comes from the species named
Settings: Homo sapiens

Row | Variant | abundance fitness
1 | I31W | -0.901 ± 0.36
2 | S43P | -0.945 ± 0.21
3 | E36L | -0.698 ± 0.1
4 | R30Y | -0.398 ± 0.085
5 | F13G | -0.677 ± 0.085
6 | T62R | -0.046 ± 0.065
7 | D22T | -0.054 ± 0.062
8 | K57W | -0.677 ± 0.16
9 | T48P | -0.867 ± 0.18
10 | E20C | -0.014 ± 0.05
11 | R47F | -0.713 ± 0.086
12 | K45T | -0.791 ± 0.13
13 | R30W | -0.921 ± 0.24
14 | D27L | -0.642 ± 0.092
15 | L35T | -0.339 ± 0.082
16 | A33C | -0.291 ± 0.074
17 | K45F | -0.32 ± 0.08
18 | V25F | -0.573 ± 0.08
19 | N19V | -0.563 ± 0.068
20 | R54T | -0.24 ± 0.094
21 | E24D | 0.009 ± 0.055
22 | F51C | -0.748 ± 0.092
23 | R12C | -0.477 ± 0.08
24 | Y53S | 0.329 ± 0.044

Row | Variant | abundance fitness
25 | D37N | -0.116 ± 0.06
26 | L58K | -0.55 ± 0.14
27 | E20Q | 0.069 ± 0.12
28 | R63C | -0.06 ± 0.062
29 | K45S | -0.296 ± 0.055
30 | E20A | -0.163 ± 0.076
31 | T62Y | -0.127 ± 0.052
32 | L10V | -0.252 ± 0.054
33 | G49P | -1.08 ± 0.33
34 | N19K | -0.227 ± 0.14
35 | K28F | -0.596 ± 0.096
36 | A33I | -0.703 ± 0.13
37 | L35W | -0.642 ± 0.21
38 | T62E | -0.004 ± 0.17
39 | L35Q | 0.009 ± 0.23
40 | I29V | -0.533 ± 0.072
41 | T34V | -0.192 ± 0.048
42 | Y53W | 0.108 ± 0.25
43 | A15C | -0.617 ± 0.076
44 | E36W | -0.612 ± 0.18
45 | E41M | 0.073 ± 0.2
46 | F51S | -0.794 ± 0.081
47 | F23M | -0.227 ± 0.13
48 | R54F | -0.261 ± 0.065

Row | Variant | abundance fitness
49 | G26E | -1.01 ± 0.34
50 | R30V | -0.73 ± 0.1
51 | P52A | -0.68 ± 0.097
52 | C59H | -0.227 ± 0.1
53 | F23G | -0.682 ± 0.094
54 | A9C | -0.771 ± 0.096
55 | F51P | -0.524 ± 0.14
56 | R47C | -0.578 ± 0.086
57 | E2S | -0.567 ± 0.087
58 | P60E | -0.076 ± 0.15
59 | E17Q | 0.189 ± 0.14
60 | P3R | -0.114 ± 0.059
61 | L58N | -0.914 ± 0.12
62 | P18R | -0.04 ± 0.053
63 | I50Y | -0.533 ± 0.073
64 | L35K | 0.137 ± 0.13
65 | G42W | -0.506 ± 0.19
66 | F23N | -0.805 ± 0.14
67 | G49H | -0.807 ± 0.17
68 | L16K | -0.077 ± 0.25
69 | G26H | -0.718 ± 0.11
70 | Y53M | 0.265 ± 0.11
71 | S43A | -0.106 ± 0.058
72 | L21M | -0.852 ± 0.32

Row | Variant | abundance fitness
73 | E41K | 0.017 ± 0.19
74 | N19T | -0.223 ± 0.076
75 | Y53E | 0.282 ± 0.17
76 | K45V | -0.728 ± 0.11
77 | E20L | -0.067 ± 0.056
78 | P52F | -0.826 ± 0.11
79 | Y53I | 0.048 ± 0.055
80 | E17A | 0.029 ± 0.059
81 | A33E | -0.578 ± 0.26
82 | T5Q | 0 ± 0.16
83 | G42N | -0.891 ± 0.12
84 | Y11T | 0.044 ± 0.06
85 | G46W | -0.725 ± 0.12
86 | F13M | -0.072 ± 0.11
87 | P60V | -0.174 ± 0.053
88 | W39K | -0.395 ± 0.17
89 | G42C | -0.859 ± 0.12
90 | R12M | -0.589 ± 0.25
91 | I50E | -0.341 ± 0.15
92 | F51N | -0.791 ± 0.094
93 | P60R | -0.245 ± 0.063
94 | G7Q | -0.258 ± 0.22
95 | A15G | 0.019 ± 0.055
96 | W39F | -0.168 ± 0.073

Row | Variant | abundance fitness
97 | P18E | -0.006 ± 0.13
98 | R63T | 0.186 ± 0.056
99 | L40T | -0.394 ± 0.085
100 | L16Y | -0.137 ± 0.06
101 | K45D | 0.104 ± 0.075
102 | T34K | -0.036 ± 0.095
103 | C59K | -0.086 ± 0.22
104 | I50H | -0.681 ± 0.12
105 | E36S | -0.212 ± 0.054
106 | G49C | -0.422 ± 0.071
107 | T34S | -0.077 ± 0.047
108 | G26F | -0.682 ± 0.09
109 | E20S | -0.468 ± 0.059
110 | K57S | -0.088 ± 0.038
111 | T5R | -0.225 ± 0.072
112 | D22Y | -0.108 ± 0.051
113 | E1L | -0.041 ± 0.087
114 | R54S | 0.046 ± 0.048
115 | A9E | -0.73 ± 0.41
116 | A9Y | -0.578 ± 0.078
117 | L58Y | -0.473 ± 0.06
118 | L32A | -0.866 ± 0.13
119 | E17R | 0.151 ± 0.053
120 | F55Q | -0.774 ± 0.12

Row | Variant | abundance fitness
121 | I50F | -0.598 ± 0.077
122 | G4K | -0.211 ± 0.15
123 | G46S | -0.474 ± 0.038
124 | P3I | 0.273 ± 0.073
125 | P18S | -0.113 ± 0.05
126 | Y11G | -0.429 ± 0.067
127 | P3F | 0.059 ± 0.082
128 | F55D | -0.621 ± 0.051
129 | Y6Q | -0.927 ± 0.31
130 | F51H | -0.792 ± 0.12
131 | F55Y | 0.079 ± 0.034
132 | F23V | -0.334 ± 0.056
133 | L10F | -0.873 ± 0.12
134 | E24C | -0.414 ± 0.062
135 | E24A | -0.593 ± 0.086
136 | K28Q | -0.604 ± 0.2
137 | L16R | 0.316 ± 0.058
138 | F23C | -0.717 ± 0.09
139 | G46M | -0.769 ± 0.17
140 | T62V | -0.04 ± 0.055
141 | Y6W | -0.498 ± 0.27
142 | V56T | -0.594 ± 0.087
143 | C59D | -0.198 ± 0.066
144 | L32M | -0.394 ± 0.17

Row | Variant | abundance fitness
145 | A33R | 0.033 ± 0.067
146 | S43V | -0.326 ± 0.063
147 | T48C | -0.286 ± 0.062
148 | L21V | -0.619 ± 0.097
149 | L21I | -0.636 ± 0.19
150 | G26C | -0.334 ± 0.054
151 | V25Q | -0.548 ± 0.22
152 | P3Q | -0.026 ± 0.14
153 | R54N | 0.238 ± 0.063
154 | G46E | -0.473 ± 0.12
155 | E24N | -0.032 ± 0.059
156 | Q14I | -0.188 ± 0.057
157 | W39I | -0.546 ± 0.075
158 | P18G | -0.492 ± 0.061
159 | T5Y | -0.214 ± 0.066
160 | K57D | -0.257 ± 0.055
161 | F13T | -0.831 ± 0.15
162 | E1T | -0.111 ± 0.1
163 | T34P | -0.59 ± 0.13
164 | R54C | -0.373 ± 0.071
165 | P3M | 0.207 ± 0.15
166 | F13K | -0.207 ± 0.15
167 | E41H | -0.072 ± 0.065
